# Earlier results in PMC7883480.
# pKd, pKi: −log10 of the molar value.
# Tests used:
# CXCR4 (Homo sapiens) = CXCR4 (Homo sapiens) (UniProt P61073); experiment: radioligand competitive displacement
# [1] = molecular target: GIP receptor (Homo sapiens) (UniProt P48546); experiment: competitive binding assay
# [2] = molecular target: GLP-1 receptor (Homo sapiens) (UniProt P43220); experiment: SPA binding assay
Substance,pKd (CXCR4 (Homo sapiens)),pKi [1],pKi [2]
CXCL12 1-68 (from UniProt P48061),8.84,–,–
GIP 3-30 (from UniProt P09681),–,8.64,–
GLP-1 7-36 (from UniProt P01275),–,–,9.99
GLP-1 9-36 (from UniProt P01275),–,–,6.81

# Results, then the substance that gave them:
pKd (CXCR4 (Homo sapiens)),pKi [1],pKi [2],Substance
6.33,–,–,CXCL12 3-68 (from UniProt P48061)
–,9.05,–,GIP 1-30 (from UniProt P09681)
